Paper PMC2768332

T1: KSRP (UniProt Q92945 1-711)
T1 sequence: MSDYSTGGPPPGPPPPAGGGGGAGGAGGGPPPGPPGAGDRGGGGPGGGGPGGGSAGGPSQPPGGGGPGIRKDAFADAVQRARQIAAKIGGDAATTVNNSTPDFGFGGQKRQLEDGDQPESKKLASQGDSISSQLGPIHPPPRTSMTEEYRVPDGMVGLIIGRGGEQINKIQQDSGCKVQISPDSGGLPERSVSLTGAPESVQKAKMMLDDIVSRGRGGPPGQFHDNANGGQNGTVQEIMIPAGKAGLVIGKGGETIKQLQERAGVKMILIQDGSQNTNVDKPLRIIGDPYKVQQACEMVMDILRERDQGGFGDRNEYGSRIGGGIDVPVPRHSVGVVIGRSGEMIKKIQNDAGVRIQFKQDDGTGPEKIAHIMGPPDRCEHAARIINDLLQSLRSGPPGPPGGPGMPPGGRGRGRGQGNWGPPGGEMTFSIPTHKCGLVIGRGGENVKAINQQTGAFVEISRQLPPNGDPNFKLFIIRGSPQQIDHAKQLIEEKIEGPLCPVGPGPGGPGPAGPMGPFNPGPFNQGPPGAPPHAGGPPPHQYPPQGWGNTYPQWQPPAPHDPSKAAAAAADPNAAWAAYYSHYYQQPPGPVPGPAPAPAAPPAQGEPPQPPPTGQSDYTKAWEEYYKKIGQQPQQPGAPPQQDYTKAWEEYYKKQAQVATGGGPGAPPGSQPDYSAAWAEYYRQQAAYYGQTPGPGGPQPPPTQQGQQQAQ

B1: TL-miR-21 WT (ssRNA)
RNA: CUGUUGAAUCUCAUGG
B2: TL-miR-21 M2 (ssRNA)
RNA: CUCUUCAAUCUCAUGG

Target: T1, KSRP
Test: UV-crosslinking or EMSA

| Binder | binding result |
| --- | --- |
| B1 | binds |
| B2 | no binding |
